Molecular target: labelled Vip3Aa protoxin (MST) (Bacillus thuringiensis (strain Bt9816C))
Test: MST; 10 nM labelled Vip3Aa kept constant, Sf-SR-C protein fragments titrated 0.3 nM to 10 μM, 20 min at RT; 25 mM Hepes pH 7.5, 150 mM NaCl, 0.05% Tween-20; 25 °C; fitted to the Hill equation; three independent experiments

| Substance | Kd [nM] |
| --- | --- |
| GST-SR-F-2 (Sf-SR-C aa 139-320, the MAM domain) (domain or fragment) | 463 |
| Sf-CCP (CCP domain of Sf-SR-C (aa 20-80) with a His-tag) (domain or fragment) | 2190 |
| extracellular sequence of Sf-SR-C (aa 20-558) with a glutathione-S-transferase tag (GST-SR-C-N) (domain or fragment) | 190 |

From article PMC6191154
